Test results reported in paper PMC3128523.

Molecular target: GST-tagged constitutively active Rab1A Q67L (Dictyostelium) (UniProt P34139)
Assay: pull-down

Sequence of UniProt P34139 (P34139 whole entry Q67L): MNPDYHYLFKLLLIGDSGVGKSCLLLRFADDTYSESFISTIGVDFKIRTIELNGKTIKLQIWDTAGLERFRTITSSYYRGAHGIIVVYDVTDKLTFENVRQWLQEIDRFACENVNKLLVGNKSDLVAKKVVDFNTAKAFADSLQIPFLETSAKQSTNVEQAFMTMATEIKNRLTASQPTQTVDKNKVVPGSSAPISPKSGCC

fold of Roco2 pulled down against wild-type Rab1A: > 5 fold
Substance: T7-tagged Roco2 (wild type) (enzyme)
